Laboratory results: patent US20170165337A1 (IMMATICS BIOTECHNOLOGIES, published 2017)

Biological target: T1, HLA-A*02:01 (human)
T1 construct: MHC class I monomer of the UV-ligand exchange assay; also called peptide-receptive MHC molecules; MHC class I
Experiment: UV peptide-exchange ELISA
From the text: Candidate peptides for T cell based therapies according to the present invention were further tested for their MHC binding capacity (affinity). The individual peptide-MHC complexes were produced by UV-ligand exchange, where a UV-sensitive peptide is cleaved upon UV-irradiation, and exchanged with the peptide of interest as analyzed. Only peptide candidates that can effectively bind and stabilize the peptide-receptive MHC molecules prevent dissociation of the MHC complexes. To determine the yield of the exchange reaction, an ELISA was performed based on the detection of the light chain (β2m) of stabilized MHC complexes. The assay was performed as generally described in Rodenko et al. (Rodenko et al., 2006).
96 well MAXISorp plates (NUNC) were coated over night with 2 ug/ml streptavidin in PBS at room temperature, washed 4× and blocked forl h at 37° C. in 2% BSA containing blocking buffer. Refolded HLA-A*02:01/MLA-001 monomers served as standards, covering the range of 15-500 ng/ml. Peptide-MHC monomers of the UV-exchange reaction were diluted 100 fold in blocking buffer. Samples were incubated for 1 h at 37° C., washed four times, incubated with 2 ug/ml HRP conjugated anti-β2m for 1 h at 37° C., washed again and detected with TMB solution that is stopped with […]. Absorption was measured at 450 nm. Candidate peptides that show a high exchange yield (preferably higher than 50%, most preferred higher than 75%) are generally preferred for a generation and production of antibodies or fragments thereof, and/or T cell receptors or fragments thereof, as they show sufficient avidity to the MHC molecules and prevent dissociation of the MHC complexes.

For TLLDWQDSL, which peptide exchange yield is on record?
Its peptide exchange yield is 50 to 75%.

How did the peptide exchange yield turn out when FLQDSKVIFV was run?
The peptide exchange yield was 50 to 75%.

How did the peptide exchange yield turn out when TLTDEQFLV was run?
The peptide exchange yield was 20 to 50%.

AVLGLVWLL was tested. Which peptide exchange yield did it give?
Its peptide exchange yield is 50 to 75%.

GLLESGRHYL was tested. Which peptide exchange yield did it give?
The peptide exchange yield was 50 to 75%.

With TLLADDLEIKL as the binder, how does the peptide exchange yield read?
The peptide exchange yield was 50 to 75%.

ILLGIQELL was tested. Which peptide exchange yield did it give?
The peptide exchange yield was 50 to 75%.

Which peptide exchange yield does the source give for ALYLTEVFL here?
The peptide exchange yield was at least 75%.

FLAEASVMTQL was tested. Which peptide exchange yield did it give?
The peptide exchange yield was 50 to 75%.

With VLDELPPLI as the binder, how does the peptide exchange yield read?
Its peptide exchange yield is 50 to 75%.

For ATYSGLESQSV, which peptide exchange yield is on record?
Its peptide exchange yield is 20 to 50%.

With QLLPVSNVVSV as the binder, how does the peptide exchange yield read?
The peptide exchange yield was 50 to 75%.

Which peptide exchange yield does the source give for VLLFIEHSV here?
The peptide exchange yield was 50 to 75%.

With GLVETELQL as the binder, how does the peptide exchange yield read?
The peptide exchange yield was 50 to 75%.

How did the peptide exchange yield turn out when YMAPEVVEA was run?
Its peptide exchange yield is 50 to 75%.

Which peptide exchange yield does the source give for NLLDDRGMTAL here?
Its peptide exchange yield is 50 to 75%.

Which peptide exchange yield does the source give for AVLHLLLSV here?
Its peptide exchange yield is 20 to 50%.

How did the peptide exchange yield turn out when NLLDPGSSYLL was run?
Its peptide exchange yield is 50 to 75%.

How did the peptide exchange yield turn out when AMNISVPQV was run?
Its peptide exchange yield is 50 to 75%.

LLVQEPDGLMV was tested. Which peptide exchange yield did it give?
Its peptide exchange yield is 50 to 75%.

LLPTGVFQV was tested. Which peptide exchange yield did it give?
Its peptide exchange yield is 50 to 75%.

For YLDDLLPKL, which peptide exchange yield is on record?
Its peptide exchange yield is 50 to 75%.

VLNDGAPNV was tested. Which peptide exchange yield did it give?
The peptide exchange yield was 50 to 75%.

For VMILKLPFL, which peptide exchange yield is on record?
Its peptide exchange yield is 20 to 50%.

KLDETGVAL was tested. Which peptide exchange yield did it give?
Its peptide exchange yield is 20 to 50%.

For YLFEEAISM, which peptide exchange yield is on record?
The peptide exchange yield was 50 to 75%.

Which peptide exchange yield does the source give for TILDYINVV here?
The peptide exchange yield was 50 to 75%.

With ILQALAVHL as the binder, how does the peptide exchange yield read?
The peptide exchange yield was 50 to 75%.

Which peptide exchange yield does the source give for ILPTLEKELFL here?
The peptide exchange yield was 50 to 75%.

GVATAGCVNEV was tested. Which peptide exchange yield did it give?
Its peptide exchange yield is at least 75%.

VLGEYSYLL was tested. Which peptide exchange yield did it give?
Its peptide exchange yield is 50 to 75%.

Which peptide exchange yield does the source give for FLYIRQLAI here?
The peptide exchange yield was 50 to 75%.

For SLDDVEGMSV, which peptide exchange yield is on record?
The peptide exchange yield was 50 to 75%.

With GLDDLLLFL as the binder, how does the peptide exchange yield read?
Its peptide exchange yield is 50 to 75%.

TLLQVFHLL was tested. Which peptide exchange yield did it give?
The peptide exchange yield was 50 to 75%.

How did the peptide exchange yield turn out when SLWNAGTSV was run?
Its peptide exchange yield is 50 to 75%.

For ILARDILEI, which peptide exchange yield is on record?
The peptide exchange yield was 50 to 75%.

SLVEAQGWLV was tested. Which peptide exchange yield did it give?
Its peptide exchange yield is 50 to 75%.

Which peptide exchange yield does the source give for YTLDSLYWSV here?
The peptide exchange yield was 50 to 75%.

How did the peptide exchange yield turn out when ILGDILLKV was run?
Its peptide exchange yield is 50 to 75%.

With RLDYITAEI as the binder, how does the peptide exchange yield read?
The peptide exchange yield was 50 to 75%.

Which peptide exchange yield does the source give for ILAGEMLSV here?
Its peptide exchange yield is 50 to 75%.

SQWEDIHVV was tested. Which peptide exchange yield did it give?
Its peptide exchange yield is 50 to 75%.

For GIIDINVRL, which peptide exchange yield is on record?
The peptide exchange yield was 20 to 50%.

Which peptide exchange yield does the source give for TVLPVPPLSV here?
Its peptide exchange yield is 50 to 75%.

How did the peptide exchange yield turn out when GLQENLDVVV was run?
Its peptide exchange yield is at least 75%.

Which peptide exchange yield does the source give for FMHQIIDQV here?
The peptide exchange yield was at least 75%.

With TLLDQLDTQL as the binder, how does the peptide exchange yield read?
The peptide exchange yield was 20 to 50%.

How did the peptide exchange yield turn out when FLGGLSPGV was run?
Its peptide exchange yield is 50 to 75%.

FLLEDLSQKL was tested. Which peptide exchange yield did it give?
Its peptide exchange yield is 50 to 75%.

With KTVEPPISQV as the binder, how does the peptide exchange yield read?
Its peptide exchange yield is 20 to 50%.

How did the peptide exchange yield turn out when LLRDGIELV was run?
Its peptide exchange yield is 50 to 75%.

With KIMDYSLLLGV as the binder, how does the peptide exchange yield read?
The peptide exchange yield was at least 75%.

FLLNLQNCHL was tested. Which peptide exchange yield did it give?
The peptide exchange yield was at least 75%.

Which peptide exchange yield does the source give for KLKDRLPSI here?
The peptide exchange yield was 20 to 50%.

LLYDNVPGA was tested. Which peptide exchange yield did it give?
Its peptide exchange yield is 50 to 75%.

For GLDDAEYAL, which peptide exchange yield is on record?
The peptide exchange yield was 20 to 50%.

How did the peptide exchange yield turn out when AVLLVLPLV was run?
The peptide exchange yield was 50 to 75%.

With AMAGDVVYA as the binder, how does the peptide exchange yield read?
The peptide exchange yield was 50 to 75%.

With ALWDPVIEL as the binder, how does the peptide exchange yield read?
Its peptide exchange yield is 50 to 75%.

How did the peptide exchange yield turn out when NLWSVDGEVTV was run?
Its peptide exchange yield is 50 to 75%.

ILQPMDIHV was tested. Which peptide exchange yield did it give?
Its peptide exchange yield is 50 to 75%.

VLLEYHIAYL was tested. Which peptide exchange yield did it give?
The peptide exchange yield was 50 to 75%.

For VIRNIVEAA, which peptide exchange yield is on record?
The peptide exchange yield was 20 to 50%.

How did the peptide exchange yield turn out when RLLDEQFAVL was run?
Its peptide exchange yield is 50 to 75%.

With QLIPKLIFL as the binder, how does the peptide exchange yield read?
Its peptide exchange yield is 50 to 75%.

LLSAAEPVPA was tested. Which peptide exchange yield did it give?
Its peptide exchange yield is 20 to 50%.
